Laboratory results from US8920798B2, “Myostatin binding agents, nucleic acids encoding the same, and methods of treatment” (Amgen Inc., priority 2002, dated 2014).

T1: myostatin (Homo sapiens, UniProt O14793)
T1 construct: To produce mature myostatin, the pooled promyostatin was enzymatically cleaved between the propeptide and mature myostatin C terminal; made in house; host or cells: E. coli K-12 strain 2596 (ATCC #202174)
T1 sequence (O14793 267-375): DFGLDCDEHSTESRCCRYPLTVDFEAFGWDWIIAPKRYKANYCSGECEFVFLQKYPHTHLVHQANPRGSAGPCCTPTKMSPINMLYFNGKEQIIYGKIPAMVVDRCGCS

B1: 2xmTN8-19-7: 2x peptibody, two mTN8-19-7 peptides in tandem on Fc (SEQ ID NO: 615) (protein)
chain: GGGGGAQLADHGQCIRWPWMCPPEGWELEGSGSATGGSGSTASSGSGSATGLADHGQCIRWPWMCPPEGWELE
modifications: Peptibody
B2: ActRIIB/Fc: soluble receptor fusion protein actRIIB/Fc (R&D Systems) (protein)
chain: SGRGEAETRECIYYNANWELERTNQSGLERCEGEQDKRLHCYASWRNSSGTIELVKKGCWLDDFNCYDRQECVATEENPQVYFCCCEGNFCNERFTHLPEAGGPEVTYEPPPTAPT
modifications: left off: a dimerising Fc or GST
B3: 2xmTN8-19-7(-LE): 2x mTN8-19-7 peptibody with the LE sequences deleted (SEQ ID NO: 617) (protein)
chain: GGGGGAQLADHGQCIRWPWMCPPEGWEGSGSATGGSGGGASSGSGSATGLADHGQCIRWPWMCPPEGWE
modifications: Peptibody

Tests used:
[1] = tested on: C57B/6 mice; assay: Gripping strength in C57B/6 mice; format: in vivo, mouse; details: 4 month old male C57B/6 mice; s.c. 2 injections per week, 5 mg/kg per week, 30 days; measured day 18 of recovery
Method: Normal age-matched 4 month old male C57B/6 mice were treated for 30 days with 2 injections per week subcutaneous injections 5 mg/kg per week of 2× mTN8-19-33, 2× mTN8-19-7, and huFc vehicle control group (10 animals/group). The animals were allowed to recover without any further injections. Gripping strength was measured on day 18 of the recovery period. Gripping strength was measured using a Columbia Instruments meter, model 1027 dsm (Columbus, Ohio).

[2] = In vivo pharmacokinetics in CD1 nu/nu mice; parameters: species or system mouse; details: 10 mg/kg and 5 mg/kg, peptibodies without the LE sequences
Method: In vivo pharmacokinetics experiments were performed using representative peptibodies without the LE sequences. 10 mg/kg and 5 mg/kg dosages were administered to CD1 nu/nu mice and the following parameters determined. Cmax (ug/mL), area under the curve (AUC) (ug-hr/mL), and half-life (hr).

[3] = tested on: CD1 nu/nu mouse model; assay: In vivo anabolic activity in CD1 nu/nu mouse model; details: CD1 nu/nu male mice; 1 and 3 mg/kg twice weekly for 35 days; vs 1× peptibody or huFc control; FIG. 5
Text: The CD1 nu/nu mouse model (Charles River Laboratories, Massachusettes) was used to determine the in vivo efficacy of the peptibodies of the present invention which included the human Fc region (huFc). This model responded to the inhibitors of the present invention with a rapid anabolic response which was associated with increased dry muscle mass and an increase in myofibrillar proteins but was not associated with accumulation in body water content.
A group of 10 8 week old CD1 nu/nu mice were treated twice weekly or once weekly with dosages of 1 mg/kg, 3 mg/kg and 10 mg/kg (subcutaneous injection). The control group of 10 8 week old CD1 nu/nu mice received a twice weekly (subcutaneous) injection of huFc (vehicle) at 10 mg/kg. The animals were weighed every other day and lean body mass determined by NMR on day 0 and day 13. The animals are then sacrificed at day 14 and the size of the gastrocnemius muscle determined.
In another example, the 1× mTN8-19-32 peptibody was administered to CD1 nu/nu mice in a biweekly injection of 1 mg/kg, 3 mg/kg, 10 mg/kg, and 30 mg/kg compared with the huFc control (vehicle).
CD1 nu/nu male mice (10 animals per group) were treated with twice weekly injections of 1 mg/kg and 3 mg/kg of 1× mTN8-19-7 and 2× mTN8-19-7 for 35 days, while the control group (10 animals) received twice weekly injections of huFc (3 mg/kg).

[4] = target: T1, myostatin; assay: C2C12 pMARE-luc cell based myostatin activity assay; details: Table VIII; affinity matured peptibodies; a range of values is given
Text: A myostatin-responsive reporter cell line was generated by transfection of C2C12 myoblast cells (ATCC No: CRL-1772) with a pMARE-luc construct. The pMARE-luc construct was made by cloning twelve repeats of the CAGA sequence, representing the myostatin/activin response elements (Dennler et al. EMBO 17: 3091-3100 (1998)) into a pLuc-MCS reporter vector (Stratagene cat #219087) upstream of the TATA box. The myoblast C2C12 cells naturally express myostatin/activin receptors on its cell surface. When myostatin binds the cell receptors, the Smad pathway is activated, and phosphorylated Smad binds to the response element (Maciasi-Silva et al. Cell 87:1215 (1996)), resulting in the expression of the lucerase gene. Luciferase activity is then measured using a commercial luciferase reporter assay kit (cat #E4550, Promega, Madison, Wis.) according to manufacturer's protocol. A stable line of C2C12 cells that had been transfected with pMARE-luc (C2C12/pMARE clone #44) was used to measure myostatin activity according to the following procedure.
Equal numbers of the reporter cells (C2C12/pMARE clone #44) were plated into 96 well cultures. A first round screening using two dilutions of peptibodies was performed with the myostatin concentration fixed at 4 nM. […] Myostatin activity was measured by determining the luciferase activity in the treated cultures. […]

[5] = target: T1, myostatin; assay: BIAcore direct binding affinity assay on immobilized myostatin; details: Table III
Method: An affinity analysis of each candidate myostatin peptibody was performed on a BIAcore® 3000 (Biacore, Inc., Piscataway, N.J.), apparatus using sensor chip CM5, and 0.005 percent P20 surfactant (Biacore, Inc.) as running buffer.
Direct binding assays were used to screen and rank the peptibodies in order of their ability to bind to immobilized myostatin. Binding assays were carried by injection of two concentrations (40 and 400 nM) of each candidate myostatin-binding peptibody to the immobilized myostatin surface at a flow rate of 50 μl/min for 3 minutes. After a dissociation time of 3 minutes, the surface was regenerated. Binding curves were compared qualitatively for binding signal intensity, as well as for dissociation rates. Peptibody binding kinetic parameters including ka (association rate constant), kd (dissociation rate constant) and KD (dissociation equilibrium constant) were determined using the BTA evaluation 3.1 computer program (Biacore, Inc.). The lower the dissociation equilibrium constants (expressed in nM), the greater the affinity of the peptibody for myostatin.

Molecule	increase in gripping strength compared with control-treated mice [1] [%]	half-life [2]	body weight gain [3]	lean carcass weight at necropsy [3]	IC50 [4] [nM]	Kd [5] [nM]
B1	15	about 106 hours	greater body weight gain	greater	0.857 to 2.65	–
B2	–	–	–	–	–	~7
B3	–	–	–	–	1.08 to 1.22	–
